Experimental data as given in PMC5653649, “Evolution of AF6-RAS association and its implications in mixed-lineage leukemia” (Nature Communications, 2017).

B1: AF6 RA1 domain (residues 37–136) (domain or fragment, UniProt Q9QZQ1 37-136, looked up)
chain: LEFHGVMRFYFQDKAAGNFATKCIRVSSTATTQDVIETLAEKFRPDMRMLSSPKYSLYEVHVSGERRLDIDEKPLVVQLNWNKDDREGRFVLKNENDAIP
notes: AF6/afadin first RAS association (RA1) domain, residues 37-136; 15N-labelled for the NMR titration; The monomer fraction was used for crystallisation; also called core RA1 domain; core AF6 RA domain; source: E. coli BL21, purified (glutathione resin, thrombin cleavage, size exclusion chromatography); not shown: GST, N-terminal, cleaved

Assays:
[1] = target: the molecule itself; assay: SEC; size exclusion chromatography of the purified domain at several concentrations (S75 or S200 column)
[2] = target: T1, H-RAS (residues 1–171), GMPPNP-loaded (human, UniProt P01112 1-171); assay: ITC; Microcal VP-ITC; RA domains titrated into GMPPNP-loaded RAS; 20 mM Tris-HCl pH 7.5, 100 mM NaCl, 5 mM MgCl2, 1 mM DTT; 25 °C; conditions: both partners purified
T1 construct: wild-type H-RAS, human cDNA, Gene ID 3265, residues 1-171; also called RAS-GMPPNP; source: E. coli BL21, purified (Ni-NTA, thrombin, size exclusion chromatography), loaded with GMPPNP; not shown: HIS tag, N-terminal, cleaved

[3] = target: the molecule itself; assay: native gel or EMSA; blue native PAGE (BN–PAGE), 15% acrylamide; proteins purified by size exclusion chromatography and concentrated to 100–150 μM
[4] = target: B1; assay: NMR titration; AF6 6–36 fragment titrated into 15N-AF6 RA1; 1H/15N-HSQC; 25 °C; 20 mM Tris-HCl pH 7.5, 100 mM NaCl, 1 mM DTT, 5 mM MgCl2, 10% D2O; conditions: both partners purified

With B1 the “stoichiometry N” value [1] was 2 and the Kd [2] was 17.8 µM.

B2: BTBD18 (residues 97–134) fused upstream of the ARAF RBD domain (residues 17–94) (other, UniProt B2RXH4 97-134, looked up)
chain: EMEVSQEEAQDVLSAARQLRVSELESLQLEGGKLVKAPAVGTVKVYLPNKQRTVVTVRDGMSVYDSLDKALKVRGLNQDCCVVYRLIKGRKTVTAWDTAIAPLDGEELIVEVLEDV
notes: human BTBD18, Gene ID 643376, residues 97-134 (helix-turn-helix with a hydrophobic patch); source: E. coli BL21, purified (expressed from pGEX-4T2); not shown: GST, N-terminal, cleaved
With B2 the “stoichiometry N” value [3] was 2.

B3: AF6 αN helix fragment (residues 6–36) (domain or fragment, UniProt Q9QZQ1 6-36, looked up)
chain: RDEERRKLADIIHHWNANRLDLFEISQPTED
notes: AF6/afadin residues 6-36 encompassing the αN helix (31 residues); also called AF6 6–36; αN helix alone; source: E. coli BL21, purified (glutathione resin, thrombin cleavage, size exclusion chromatography); not shown: GST, N-terminal, cleaved
B3: binds [4].

B4: AF6 αN-extended RA1 domain (residues 6–136) (domain or fragment, UniProt Q9QZQ1 6-136, looked up)
chain: RDEERRKLADIIHHWNANRLDLFEISQPTEDLEFHGVMRFYFQDKAAGNFATKCIRVSSTATTQDVIETLAEKFRPDMRMLSSPKYSLYEVHVSGERRLDIDEKPLVVQLNWNKDDREGRFVLKNENDAIP
notes: AF6/afadin αN helix and RA1 domain, residues 6-136; also called αN-RA1; αN/RA1; source: E. coli BL21, purified (glutathione resin, thrombin cleavage, size exclusion chromatography); not shown: GST, N-terminal, cleaved
Binder B4 has a Kd [2] of 4.1 µM.
